In publication PMC7571800:

Experiments:
[1] = target: SUZ12(N);RBBP4;MTF2 full-length (Homo sapiens;Homo sapiens;Homo sapiens?, UniProt Q15022;Q09028;Q9Y483 76-545;1-425;1-593, ||); test: EMSA
[2] = target: SUZ12(N) 3D;RBBP4;MTF2 full-length (Homo sapiens;Homo sapiens;Homo sapiens?, UniProt Q15022;Q09028;Q9Y483 76-545;1-425;1-593, K195D;R196D;K197D||); test: EMSA
SUZ12(N) 3D;RBBP4;MTF2 full-length, sequence (Q15022 76-545 K195D/R196D/K197D, chain 1 of 3): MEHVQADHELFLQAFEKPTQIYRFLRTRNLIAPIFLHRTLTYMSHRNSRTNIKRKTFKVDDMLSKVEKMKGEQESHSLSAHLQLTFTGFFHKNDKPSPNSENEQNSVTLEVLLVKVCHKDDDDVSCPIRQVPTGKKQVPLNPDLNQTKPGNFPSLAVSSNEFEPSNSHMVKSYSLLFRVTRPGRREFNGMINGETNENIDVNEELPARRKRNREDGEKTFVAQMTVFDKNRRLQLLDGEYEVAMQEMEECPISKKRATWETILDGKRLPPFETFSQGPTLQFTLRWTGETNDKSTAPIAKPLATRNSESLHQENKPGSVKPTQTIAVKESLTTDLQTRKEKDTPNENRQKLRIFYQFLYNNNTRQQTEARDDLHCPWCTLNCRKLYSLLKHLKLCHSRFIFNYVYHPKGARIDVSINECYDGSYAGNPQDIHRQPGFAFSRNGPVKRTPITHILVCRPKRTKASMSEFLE
SUZ12(N) 3D;RBBP4;MTF2 full-length, sequence (Q09028 whole entry, chain 2 of 3): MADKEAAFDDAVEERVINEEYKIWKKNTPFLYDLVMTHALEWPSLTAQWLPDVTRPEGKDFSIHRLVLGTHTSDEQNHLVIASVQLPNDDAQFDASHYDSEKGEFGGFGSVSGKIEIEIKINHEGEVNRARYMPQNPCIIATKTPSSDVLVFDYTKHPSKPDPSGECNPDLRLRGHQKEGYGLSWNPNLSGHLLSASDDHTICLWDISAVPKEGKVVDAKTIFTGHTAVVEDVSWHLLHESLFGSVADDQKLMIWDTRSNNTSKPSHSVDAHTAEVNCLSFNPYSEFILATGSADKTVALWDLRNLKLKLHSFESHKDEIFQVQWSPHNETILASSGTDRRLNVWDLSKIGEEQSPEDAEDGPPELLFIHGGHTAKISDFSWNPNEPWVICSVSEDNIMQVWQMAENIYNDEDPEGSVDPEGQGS
SUZ12(N) 3D;RBBP4;MTF2 full-length, sequence (Q9Y483 whole entry, chain 3 of 3): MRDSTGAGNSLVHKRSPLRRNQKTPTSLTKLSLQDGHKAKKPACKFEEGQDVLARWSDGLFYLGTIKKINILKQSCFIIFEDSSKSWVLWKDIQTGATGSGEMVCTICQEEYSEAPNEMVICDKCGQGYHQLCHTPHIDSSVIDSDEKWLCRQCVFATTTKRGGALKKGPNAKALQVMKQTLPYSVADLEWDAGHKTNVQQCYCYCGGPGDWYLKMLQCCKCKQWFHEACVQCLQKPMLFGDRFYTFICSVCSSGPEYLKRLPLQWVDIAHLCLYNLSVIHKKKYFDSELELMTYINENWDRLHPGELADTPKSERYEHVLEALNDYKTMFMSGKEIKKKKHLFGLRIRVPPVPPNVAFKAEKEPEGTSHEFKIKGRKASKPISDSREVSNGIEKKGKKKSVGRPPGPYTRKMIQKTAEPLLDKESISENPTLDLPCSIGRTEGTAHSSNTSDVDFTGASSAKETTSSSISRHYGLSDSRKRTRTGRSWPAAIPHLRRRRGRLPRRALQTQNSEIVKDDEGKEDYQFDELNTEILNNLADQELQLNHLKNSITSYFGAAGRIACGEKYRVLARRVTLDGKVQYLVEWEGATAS

SUZ12(N);RBBP4;MTF2 full-length, sequence (Q15022 76-545, chain 1 of 3): as the sequence (Q15022 76-545 K195D/R196D/K197D, chain 1 of 3) above, with D120K, D121R, D122K counted along it
SUZ12(N);RBBP4;MTF2 full-length, sequence (Q09028 whole entry, chain 2 of 3): as the sequence (Q09028 whole entry, chain 2 of 3) above
SUZ12(N);RBBP4;MTF2 full-length, sequence (Q9Y483 whole entry, chain 3 of 3): as the sequence (Q9Y483 whole entry, chain 3 of 3) above

B1: CGI-LHX6 100 bp (dsDNA)
DNA 1: GTGGTGGTGGTGGTTGAGAAAATAAAACCCAGAGCGCTAGGAGCATCCGCCCGCTCGACGCGCGCCGGGAAATTGAAGCGGGGATATTGACACCGATTCA
DNA 2: TGAATCGGTGTCAATATCCCCGCTTCAATTTCCCGGCGCGCGTCGAGCGGGCGGATGCTCCTAGCGCTCTGGGTTTTATTTTCTCAACCACCACCACCAC
- Kd [1]: 17.6 nM
- binding signal [2]: > 25 fold weaker than WT
